Experimental data: article PMC8690919 (Theranostics, 2022)

B1: FD-5D human monoclonal antibody (IgG1) (antibody, V domains shown)
VH: EVQLVESGGGLVQPGGSLRLSCAASGFTFSSYSMNWVRQAPGKGLEWVSYISSSSSTIYYADSVKGRFTISRDNAKNSLYLQMNSLRAEDTAVYYCASPGGITAAGTSVLFGYYGMDVWGQGTTVTVSS
VL: not shown
notes: source: ExpiCHO cells, purified (MabSelect SuRe, desalted)
B2: EY-6A human monoclonal antibody (IgG1) (antibody, V domains shown)
VH: EVQLVESGGGVVQPGRSLRLSCAASAFTFSSYDMHWVRQAPGKGLEWVAVISYDGSNKYYADSVKGRFTISRDNSKNTLYLQMNSLRAEDTAVYYCAKDGGKLWVYYFDYWGQGTLVTVSS
VL: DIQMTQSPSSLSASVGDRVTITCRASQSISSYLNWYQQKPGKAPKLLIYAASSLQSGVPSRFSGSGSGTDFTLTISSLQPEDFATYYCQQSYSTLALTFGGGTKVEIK
B3: FI-3A human monoclonal antibody (IgG1) (antibody, V domains shown)
VH: EVQLLESGGGLIQPGGSLRLSCAASGFTVSSNYMSWVRQAPGKGLEWVSVIYSGGSTYYADSVKGRFTISRDNSKNTLYLQMNSLRAEDTAVYYCARDHVRPGMNIWGQGTMVTVSS
VL: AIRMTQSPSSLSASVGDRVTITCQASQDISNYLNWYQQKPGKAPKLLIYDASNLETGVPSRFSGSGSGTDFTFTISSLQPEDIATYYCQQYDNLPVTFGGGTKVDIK
B4: REGN10987 monoclonal antibody (antibody, V domains shown)
VH: QVQLVESGGGVVQPGRSLRLSCAASGFTFSNYAMYWVRQAPGKGLEWVAVISYDGSNKYYADSVKGRFTISRDNSKNTLYLQMNSLRTEDTAVYYCASGSDYGDYLLVYWGQGTLVTVSS
VL: QSALTQPASVSGSPGQSITISCTGTSSDVGGYNYVSWYQQHPGKAPKLMIYDVSKRPSGVSNRFSGSKSGNTASLTISGLQSEDEADYYCNSLTSISTWVFGGGTKLTVL
notes: also called REGN10977 (as printed once)
B5: FD-11A human monoclonal antibody (IgG1) (antibody, V domains shown)
VH: EVQLVESGGGVVQPGRSLRLSCAASGFTFSSYGMHWVRQAPGKGLEWVAVIWYDGSNKYYADSVKGRFTISRDNSKNTLYLQMNSLRAEDTAVYYCAKGPDILTGYYNYYYYGMDVWGQGTMVTVSS
VL: QSVLTQPPSVSGAPGQRVTISCTGSSSNIGAGYDVHWYQQLPGTAPKLLIYGNSNRPSGVPDRFSGSKSGTSASLAITGLQAEDEADYYCQSYDSSLSGFYVVFGGGTKLTVL
B6: REGN10933 monoclonal antibody (antibody, V domains shown)
VH: QVQLVESGGGLVKPGGSLRLSCAASGFTFSDYYMSWIRQAPGKGLEWVSYITYSGSTIYYADSVKGRFTISRDNAKSSLYLQMNSLRAEDTAVYYCARDRGTTMVPFDYWGQGTLVTVSS
VL: DIQMTQSPSSLSASVGDRVTITCQASQDITNYLNWYQQKPGKAPKLLIYAASNLETGVPSRFSGSGSGTDFTFTISGLQPEDIATYYCQQYDNLPLTFGGGTKVEIK
notes: as for B1

What was measured:
RBD-VLP = RBD-VLP (SARS-CoV-2, UniProt P0DTC2); assay: ELISA; conditions: both partners purified
[1] = target: T1, SARS-CoV-2 spike protein (Wuhan strain), full length, expressed on MDCK cells (SARS-CoV-2, UniProt P0DTC2); assay: flow cytometry on cells; conditions: one partner purified
T1 construct: source: MDCK-SIAT1 cells stably transfected (lentiviral vector), on cells

| Binder | binding result (RBD-VLP) | binding result [1] |
| --- | --- | --- |
| B1 | binds | – |
| B2 | binds | binds |
| B3 | binds | binds |
| B4 | binds | – |
| B5 | binds | binds |
| B6 | binds | – |
